Measurements taken from the supplement of paper PMC9112550, “Optimization of the antimicrobial peptide Bac7 by deep mutational scanning” (BMC Biology, 2022).

Test system: Escherichia coli TOP10
Assay: shrunken log2 fold change of peptide-encoding DNA abundance (4.5 h post-induction vs induction); higher = less antimicrobial activity (less host growth inhibition)
Conditions: time post-induction: 4.5 h; library: site-saturation at positions 5, 18, 19, 20
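Also: peptides expressed intracellularly from a pBAD plasmid library in pooled LB shake-flask culture, induced with 0.3% L-arabinose, DNA abundance read by NGS, three biological replicates, DESeq2 with apeglm shrinkage.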

Row | Sequence | shrunken log2 fold change
1 | RRIRMRPPRLPRPRPRPTFEPRP | -0.0436
2 | RRIRSRPPRLPRPRPRPNGRPRP | -0.0415
3 | RRIRARPPRLPRPRPRPGKFPRP | -0.167
4 | RRIRSRPPRLPRPRPRPGVMPRP | 0.161
5 | RRIRYRPPRLPRPRPRPIRQPRP | -0.0123
6 | RRIRNRPPRLPRPRPRPVRHPRP | -0.0637
7 | RRIRVRPPRLPRPRPRPHMDPRP | -0.449
8 | RRIRSRPPRLPRPRPRPFTPPRP | -0.0114
9 | RRIRQRPPRLPRPRPRPCQNPRP | -0.173
10 | RRIRERPPRLPRPRPRPIARPRP | -0.0237
11 | RRIRMRPPRLPRPRPRPIELPRP | -0.04
12 | RRIRVRPPRLPRPRPRPGYEPRP | 0.232
13 | RRIRCRPPRLPRPRPRPQRMPRP | -0.0914
14 | RRIRDRPPRLPRPRPRPPSFPRP | 0.155
15 | RRIRGRPPRLPRPRPRPRNLPRP | -0.0805
16 | RRIRMRPPRLPRPRPRPAILPRP | 0.467
17 | RRIRVRPPRLPRPRPRPYYDPRP | -0.429
18 | RRIRVRPPRLPRPRPRPGCHPRP | 0.363
19 | RRIRGRPPRLPRPRPRPYVWPRP | 0.131
20 | RRIRGRPPRLPRPRPRPNVWPRP | 0.728

Row | Sequence | shrunken log2 fold change
21 | RRIRQRPPRLPRPRPRPVRDPRP | 0.556
22 | RRIRKRPPRLPRPRPRPDSKPRP | -0.0709
23 | RRIRWRPPRLPRPRPRPMKKPRP | -0.0863
24 | RRIRWRPPRLPRPRPRPIGGPRP | -0.0334
25 | RRIRSRPPRLPRPRPRPAGPPRP | 0.493
26 | RRIRARPPRLPRPRPRPPHHPRP | 0.675
27 | RRIRVRPPRLPRPRPRPQYQPRP | -0.302
28 | RRIRNRPPRLPRPRPRPFMGPRP | -0.168
29 | RRIRDRPPRLPRPRPRPNQFPRP | -0.416
30 | RRIRCRPPRLPRPRPRPAKDPRP | 0.021
31 | RRIRNRPPRLPRPRPRPLAHPRP | 0.212
32 | RRIRKRPPRLPRPRPRPCQGPRP | -0.141
33 | RRIRCRPPRLPRPRPRPEKKPRP | 0.0741
34 | RRIRYRPPRLPRPRPRPRAQPRP | 0.174
35 | RRIRLRPPRLPRPRPRPNWMPRP | -0.296
36 | RRIRERPPRLPRPRPRPGCCPRP | 0.131
37 | RRIRRRPPRLPRPRPRPRIQPRP | 0.241
38 | RRIRVRPPRLPRPRPRPVTVPRP | -0.0359
39 | RRIRARPPRLPRPRPRPDVCPRP | -0.0214
40 | RRIRIRPPRLPRPRPRPLSHPRP | -0.0521

Row | Sequence | shrunken log2 fold change
41 | RRIRSRPPRLPRPRPRPVMCPRP | -0.173
42 | RRIRWRPPRLPRPRPRPKIWPRP | 0.272
43 | RRIRTRPPRLPRPRPRPDNPPRP | -0.371
44 | RRIRCRPPRLPRPRPRPDWIPRP | -0.159
45 | RRIRYRPPRLPRPRPRPDGRPRP | -0.154
46 | RRIRGRPPRLPRPRPRPPSFPRP | 0.653
47 | RRIRIRPPRLPRPRPRPRWAPRP | 0.0908
48 | RRIRIRPPRLPRPRPRPYCKPRP | -0.592
49 | RRIRVRPPRLPRPRPRPPYIPRP | -0.28
50 | RRIRERPPRLPRPRPRPFDSPRP | -1.81
51 | RRIRPRPPRLPRPRPRPIGAPRP | 0.288
52 | RRIRWRPPRLPRPRPRPCGKPRP | 0.0489
53 | RRIRCRPPRLPRPRPRPDLTPRP | -0.275
54 | RRIRERPPRLPRPRPRPVPDPRP | 0.268
55 | RRIRIRPPRLPRPRPRPQDGPRP | 0.0409
56 | RRIRCRPPRLPRPRPRPGYWPRP | 0.196
57 | RRIRERPPRLPRPRPRPMNCPRP | 0.0528
58 | RRIRNRPPRLPRPRPRPNPRPRP | 0.286
59 | RRIRNRPPRLPRPRPRPLVGPRP | 0.0121
60 | RRIRTRPPRLPRPRPRPFFLPRP | -0.299
